Legend:
[1] = biological target: FUS 6F-G variant (Phe residues of the RBD substituted to Gly) (UniProt P35637); assay: DLS; conditions: 10 µM FUS (RBD, F/Y-G/S), read off a plot
[2] = biological target: FUS 6Y-S variant (Tyr residues of the RBD substituted to Ser) (UniProt P35637); assay: DLS; conditions: 10 µM FUS (RBD, F/Y-G/S), read off a plot
[3] = biological target: FUS (10D/4E-G) variant (10 Asp and 4 Glu of the RBD substituted to Gly) (UniProt P35637); assay: DLS; conditions: 250 nM FUS (RBD, D/E-G), read off a plot
[4] = biological target: FUS(Y-S) with 10 Tyr of the PLCD substituted to Ser (UniProt P35637); assay: DLS; conditions: 10 µM FUS (PLD, Y-S), read off a plot
[5] = biological target: FUS(Y-S) with 18 Tyr of the PLCD substituted to Ser (UniProt P35637); assay: DLS; conditions: 10 µM FUS (PLD, Y-S), read off a plot
[6] = biological target: FUS(R-G) with 24 Arg of the RBD substituted to Gly (UniProt P35637); assay: DLS; conditions: 10 µM FUS (RBD, R-G), read off a plot
[7] = biological target: FUS(R-K) with 24 Arg of the RBD substituted to Lys (UniProt P35637); assay: DLS; conditions: read off a plot
[8] = biological target: FUS(Y-S) with 27 Tyr of the PLCD substituted to Ser (UniProt P35637); assay: DLS; conditions: 10 µM FUS (PLD, Y-S), read off a plot
[9] = biological target: T1, SNAP-tagged FUS (Fused in Sarcoma), P35637; assay: nanoparticle tracking analysis (NTA); sub-saturated solutions of one protein in 100 mM KCl and 100 mM KGlu, 25 °C, recorded 6 min after preparation; abundance of mesoscale clusters; conditions: remark: other sources report otherwise
T1 chain: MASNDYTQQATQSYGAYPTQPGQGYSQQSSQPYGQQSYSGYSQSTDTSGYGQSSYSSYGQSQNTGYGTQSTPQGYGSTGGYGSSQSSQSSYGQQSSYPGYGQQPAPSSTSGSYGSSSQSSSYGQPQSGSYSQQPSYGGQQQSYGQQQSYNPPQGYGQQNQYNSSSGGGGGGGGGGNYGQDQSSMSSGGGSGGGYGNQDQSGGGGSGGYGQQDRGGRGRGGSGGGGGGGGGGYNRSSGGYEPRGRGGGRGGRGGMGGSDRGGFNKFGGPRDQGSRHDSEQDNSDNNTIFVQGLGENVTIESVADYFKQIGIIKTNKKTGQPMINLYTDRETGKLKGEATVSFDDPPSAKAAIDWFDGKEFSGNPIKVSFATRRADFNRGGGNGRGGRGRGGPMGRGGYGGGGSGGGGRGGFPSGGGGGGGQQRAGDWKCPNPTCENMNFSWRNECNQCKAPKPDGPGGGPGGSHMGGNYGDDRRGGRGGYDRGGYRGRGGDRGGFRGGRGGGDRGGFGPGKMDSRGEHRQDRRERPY

For wild-type FUS 6F-G, the response ([1]; KCl buffer) was 1.2 Mcps and the response ([1]; KGlu buffer) was 1.7 Mcps.

Molecule wild-type FUS 6Y-S has a response ([2]; KCl buffer) of 0.49 Mcps and a response ([2]; KGlu buffer) of 1.4 Mcps.

With wild-type FUS 10D/4E-G the response ([3]; KCl buffer) was 3.2 Mcps and the response ([3]; KGlu buffer) was 3.8 Mcps.

wild-type FUS 10Y-S gave a response ([4]; KCl buffer) of 0.81 Mcps and a response ([4]; KGlu buffer) of 1.9 Mcps.

wild-type FUS 18Y-S showed a response ([5]; KCl buffer) of 0.79 Mcps and a response ([5]; KGlu buffer) of 1.3 Mcps.

With wild-type FUS 24R-G the response ([6]; KCl buffer) was 1.2 Mcps and the response ([6]; KGlu buffer) was 1.8 Mcps.

For wild-type FUS 24R-K, the response ([7]; 1 µM FUS (24R-K), KCl buffer) was 0.13 Mcps, the response ([7]; 1 µM FUS (24R-K), KGlu buffer) was 1.9 Mcps and the response ([7]; 2 µM FUS (24R-K), KCl buffer) was 0.32 Mcps. It also gave a response ([7]; 2 µM FUS (24R-K), KGlu buffer) of 2.4 Mcps, a response ([7]; 3 µM FUS (24R-K), KCl buffer) of 1.1 Mcps and a response ([7]; 3 µM FUS (24R-K), KGlu buffer) of 3.8 Mcps. It also gave a response ([7]; 4 µM FUS (24R-K), KCl buffer) of 1.4 Mcps and a response ([7]; 4 µM FUS (24R-K), KGlu buffer) of 3.9 Mcps.

For wild-type FUS 27Y-S, the response ([8]; KCl buffer) was 0.74 Mcps and the response ([8]; KGlu buffer) was 0.86 Mcps.

B1: SNAP-tagged FUS (Fused in Sarcoma), P35637 1-526 (natural protein)
chain: MASNDYTQQATQSYGAYPTQPGQGYSQQSSQPYGQQSYSGYSQSTDTSGYGQSSYSSYGQSQNTGYGTQSTPQGYGSTGGYGSSQSSQSSYGQQSSYPGYGQQPAPSSTSGSYGSSSQSSSYGQPQSGSYSQQPSYGGQQQSYGQQQSYNPPQGYGQQNQYNSSSGGGGGGGGGGNYGQDQSSMSSGGGSGGGYGNQDQSGGGGSGGYGQQDRGGRGRGGSGGGGGGGGGGYNRSSGGYEPRGRGGGRGGRGGMGGSDRGGFNKFGGPRDQGSRHDSEQDNSDNNTIFVQGLGENVTIESVADYFKQIGIIKTNKKTGQPMINLYTDRETGKLKGEATVSFDDPPSAKAAIDWFDGKEFSGNPIKVSFATRRADFNRGGGNGRGGRGRGGPMGRGGYGGGGSGGGGRGGFPSGGGGGGGQQRAGDWKCPNPTCENMNFSWRNECNQCKAPKPDGPGGGPGGSHMGGNYGDDRRGGRGGYDRGGYRGRGGDRGGFRGGRGGGDRGGFGPGKMDSRGEHRQDRRERPY
modifications: here or on the partner: AF488 or AF647 label on the copies used in smFRET and FCS (FUS-SNAP-AF488, FUS-SNAP-AF647); unlabelled in DLS and NTA; AF488 or AF647 label on the copies used in smFRET and FCS (FUS-SNAP-AF488, FUS-SNAP-AF647); unlabelled in DLS and NTA
With B1 the relative abundance of mesoscale clusters (100 mM KCl) [9] was 0.2 to 0.4%.

Reference: paper PMC11116469
